Starred links: 1 amine or outer side, 2 acyl side, 3 side chain; linkers in the order of their positions; H or OH if unused. Non-standard residues stand in square brackets, D forms with d. Groups on a side chain read outwards from the residue. No end group written: not given here. *: point of attachment. C20 diacid = O=C(O)CCCCCCCCCCCCCCCCCCC(=O)*; γGlu = O=C(O)[C@H](CCC(=O)[*:2])N[*:1]; 4Pal = N[C@@H](Cc1ccncc1)C(=O)O; αMeL = CC(C)C[C@](C)(N)C(=O)O; Orn = NCCC[C@H](N)C(=O)O; AEEA = NCCOCCOCC(=O)O; Aib = CC(C)(N)C(=O)O
T1: human glucose-dependent insulinotropic peptide receptor (human, UniProt P48546 22-466)
T1 sequence (looked up): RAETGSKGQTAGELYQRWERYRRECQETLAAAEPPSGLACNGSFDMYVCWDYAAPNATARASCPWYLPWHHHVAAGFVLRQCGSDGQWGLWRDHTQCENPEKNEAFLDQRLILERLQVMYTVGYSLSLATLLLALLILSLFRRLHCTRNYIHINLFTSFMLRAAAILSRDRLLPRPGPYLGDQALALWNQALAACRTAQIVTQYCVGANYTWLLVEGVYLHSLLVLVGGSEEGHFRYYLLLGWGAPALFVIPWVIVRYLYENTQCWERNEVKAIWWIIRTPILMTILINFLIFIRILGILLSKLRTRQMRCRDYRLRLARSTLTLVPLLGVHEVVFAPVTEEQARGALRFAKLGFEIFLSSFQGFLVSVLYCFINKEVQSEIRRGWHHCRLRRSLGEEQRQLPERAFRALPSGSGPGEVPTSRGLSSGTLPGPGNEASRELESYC

B1: Example 84 (peptide)
peptide: Y[Aib]EGTFISDYSI[αMeL]LDEK([AEEA-AEEA-γGlu-C20 diacid])HQ[Aib]DFVE[4Pal]LLAQGPSSGAPPPS-NH2
modifications: N-terminus assumed
SMILES: CC[C@H](C)[C@H](NC(=O)[C@H](Cc1ccccc1)NC(=O)[C@@H](NC(=O)CNC(=O)[C@H](CCC(=O)O)NC(=O)C(C)(C)NC(=O)[C@@H](N)Cc1ccc(O)cc1)[C@@H](C)O)C(=O)N[C@@H](CO)C(=O)N[C@@H](CC(=O)O)C(=O)N[C@@H](Cc1ccc(O)cc1)C(=O)N[C@@H](CO)C(=O)N[C@H](C(=O)N[C@@](C)(CC(C)C)C(=O)N[C@@H](CC(C)C)C(=O)N[C@@H](CC(=O)O)C(=O)N[C@@H](CCC(=O)O)C(=O)N[C@@H](CCCCNC(=O)COCCOCCNC(=O)COCCOCCNC(=O)CC[C@H](NC(=O)CCCCCCCCCCCCCCCCCCC(=O)O)C(=O)O)C(=O)N[C@@H](Cc1c[nH]cn1)C(=O)N[C@@H](CCC(N)=O)C(=O)NC(C)(C)C(=O)N[C@@H](CC(=O)O)C(=O)N[C@@H](Cc1ccccc1)C(=O)N[C@H](C(=O)N[C@@H](CCC(=O)O)C(=O)N[C@@H](Cc1ccncc1)C(=O)N[C@@H](CC(C)C)C(=O)N[C@@H](CC(C)C)C(=O)N[C@@H](C)C(=O)N[C@@H](CCC(N)=O)C(=O)NCC(=O)N1CCC[C@H]1C(=O)N[C@@H](CO)C(=O)N[C@@H](CO)C(=O)NCC(=O)N[C@@H](C)C(=O)N1CCC[C@H]1C(=O)N1CCC[C@H]1C(=O)N1CCC[C@H]1C(=O)N[C@@H](CO)C(N)=O)C(C)C)[C@@H](C)CC
B2: Example 79 (peptide)
peptide: Y[Aib]EGTFISDYSI[αMeL]LDKK([AEEA-AEEA-γGlu-C20 diacid])HQ[Aib]DFVE[4Pal]LLAQGPSSGAPPPS-NH2
modifications: N-terminus assumed
SMILES: CC[C@H](C)[C@H](NC(=O)[C@H](Cc1ccccc1)NC(=O)[C@@H](NC(=O)CNC(=O)[C@H](CCC(=O)O)NC(=O)C(C)(C)NC(=O)[C@@H](N)Cc1ccc(O)cc1)[C@@H](C)O)C(=O)N[C@@H](CO)C(=O)N[C@@H](CC(=O)O)C(=O)N[C@@H](Cc1ccc(O)cc1)C(=O)N[C@@H](CO)C(=O)N[C@H](C(=O)N[C@@](C)(CC(C)C)C(=O)N[C@@H](CC(C)C)C(=O)N[C@@H](CC(=O)O)C(=O)N[C@@H](CCCCN)C(=O)N[C@@H](CCCCNC(=O)COCCOCCNC(=O)COCCOCCNC(=O)CC[C@H](NC(=O)CCCCCCCCCCCCCCCCCCC(=O)O)C(=O)O)C(=O)N[C@@H](Cc1c[nH]cn1)C(=O)N[C@@H](CCC(N)=O)C(=O)NC(C)(C)C(=O)N[C@@H](CC(=O)O)C(=O)N[C@@H](Cc1ccccc1)C(=O)N[C@H](C(=O)N[C@@H](CCC(=O)O)C(=O)N[C@@H](Cc1ccncc1)C(=O)N[C@@H](CC(C)C)C(=O)N[C@@H](CC(C)C)C(=O)N[C@@H](C)C(=O)N[C@@H](CCC(N)=O)C(=O)NCC(=O)N1CCC[C@H]1C(=O)N[C@@H](CO)C(=O)N[C@@H](CO)C(=O)NCC(=O)N[C@@H](C)C(=O)N1CCC[C@H]1C(=O)N1CCC[C@H]1C(=O)N1CCC[C@H]1C(=O)N[C@@H](CO)C(N)=O)C(C)C)[C@@H](C)CC
B3: Example 83 (peptide)
peptide: Y[Aib]EGTFISDYSI[αMeL]LDEK([AEEA-AEEA-γGlu-C20 diacid])HQ[Aib]DFVE[4Pal]LLATGPSSGAPPPS-NH2
modifications: N-terminus assumed
SMILES: CC[C@H](C)[C@H](NC(=O)[C@H](Cc1ccccc1)NC(=O)[C@@H](NC(=O)CNC(=O)[C@H](CCC(=O)O)NC(=O)C(C)(C)NC(=O)[C@@H](N)Cc1ccc(O)cc1)[C@@H](C)O)C(=O)N[C@@H](CO)C(=O)N[C@@H](CC(=O)O)C(=O)N[C@@H](Cc1ccc(O)cc1)C(=O)N[C@@H](CO)C(=O)N[C@H](C(=O)N[C@@](C)(CC(C)C)C(=O)N[C@@H](CC(C)C)C(=O)N[C@@H](CC(=O)O)C(=O)N[C@@H](CCC(=O)O)C(=O)N[C@@H](CCCCNC(=O)COCCOCCNC(=O)COCCOCCNC(=O)CC[C@H](NC(=O)CCCCCCCCCCCCCCCCCCC(=O)O)C(=O)O)C(=O)N[C@@H](Cc1c[nH]cn1)C(=O)N[C@@H](CCC(N)=O)C(=O)NC(C)(C)C(=O)N[C@@H](CC(=O)O)C(=O)N[C@@H](Cc1ccccc1)C(=O)N[C@H](C(=O)N[C@@H](CCC(=O)O)C(=O)N[C@@H](Cc1ccncc1)C(=O)N[C@@H](CC(C)C)C(=O)N[C@@H](CC(C)C)C(=O)N[C@@H](C)C(=O)N[C@H](C(=O)NCC(=O)N1CCC[C@H]1C(=O)N[C@@H](CO)C(=O)N[C@@H](CO)C(=O)NCC(=O)N[C@@H](C)C(=O)N1CCC[C@H]1C(=O)N1CCC[C@H]1C(=O)N1CCC[C@H]1C(=O)N[C@@H](CO)C(N)=O)[C@@H](C)O)C(C)C)[C@@H](C)CC
B4: Example 81 (peptide)
peptide: Y[Aib]EGTFISDYSI[αMeL]LD[Orn]K([AEEA-AEEA-γGlu-C20 diacid])HQ[Aib]DFVE[4Pal]LLEQGPSSGAPPPS-NH2
modifications: N-terminus assumed
SMILES: CC[C@H](C)[C@H](NC(=O)[C@H](Cc1ccccc1)NC(=O)[C@@H](NC(=O)CNC(=O)[C@H](CCC(=O)O)NC(=O)C(C)(C)NC(=O)[C@@H](N)Cc1ccc(O)cc1)[C@@H](C)O)C(=O)N[C@@H](CO)C(=O)N[C@@H](CC(=O)O)C(=O)N[C@@H](Cc1ccc(O)cc1)C(=O)N[C@@H](CO)C(=O)N[C@H](C(=O)N[C@@](C)(CC(C)C)C(=O)N[C@@H](CC(C)C)C(=O)N[C@@H](CC(=O)O)C(=O)N[C@@H](CCCN)C(=O)N[C@@H](CCCCNC(=O)COCCOCCNC(=O)COCCOCCNC(=O)CC[C@H](NC(=O)CCCCCCCCCCCCCCCCCCC(=O)O)C(=O)O)C(=O)N[C@@H](Cc1c[nH]cn1)C(=O)N[C@@H](CCC(N)=O)C(=O)NC(C)(C)C(=O)N[C@@H](CC(=O)O)C(=O)N[C@@H](Cc1ccccc1)C(=O)N[C@H](C(=O)N[C@@H](CCC(=O)O)C(=O)N[C@@H](Cc1ccncc1)C(=O)N[C@@H](CC(C)C)C(=O)N[C@@H](CC(C)C)C(=O)N[C@@H](CCC(=O)O)C(=O)N[C@@H](CCC(N)=O)C(=O)NCC(=O)N1CCC[C@H]1C(=O)N[C@@H](CO)C(=O)N[C@@H](CO)C(=O)NCC(=O)N[C@@H](C)C(=O)N1CCC[C@H]1C(=O)N1CCC[C@H]1C(=O)N1CCC[C@H]1C(=O)N[C@@H](CO)C(N)=O)C(C)C)[C@@H](C)CC
B5: Example 82 (peptide)
peptide: Y[Aib]EGTFISDYSI[αMeL]LD[Orn]K([AEEA-AEEA-γGlu-C20 diacid])HQ[Aib]DFVE[4Pal]LLEGGPSSGAPPPS-NH2
modifications: N-terminus assumed
SMILES: CC[C@H](C)[C@H](NC(=O)[C@H](Cc1ccccc1)NC(=O)[C@@H](NC(=O)CNC(=O)[C@H](CCC(=O)O)NC(=O)C(C)(C)NC(=O)[C@@H](N)Cc1ccc(O)cc1)[C@@H](C)O)C(=O)N[C@@H](CO)C(=O)N[C@@H](CC(=O)O)C(=O)N[C@@H](Cc1ccc(O)cc1)C(=O)N[C@@H](CO)C(=O)N[C@H](C(=O)N[C@@](C)(CC(C)C)C(=O)N[C@@H](CC(C)C)C(=O)N[C@@H](CC(=O)O)C(=O)N[C@@H](CCCN)C(=O)N[C@@H](CCCCNC(=O)COCCOCCNC(=O)COCCOCCNC(=O)CC[C@H](NC(=O)CCCCCCCCCCCCCCCCCCC(=O)O)C(=O)O)C(=O)N[C@@H](Cc1c[nH]cn1)C(=O)N[C@@H](CCC(N)=O)C(=O)NC(C)(C)C(=O)N[C@@H](CC(=O)O)C(=O)N[C@@H](Cc1ccccc1)C(=O)N[C@H](C(=O)N[C@@H](CCC(=O)O)C(=O)N[C@@H](Cc1ccncc1)C(=O)N[C@@H](CC(C)C)C(=O)N[C@@H](CC(C)C)C(=O)N[C@@H](CCC(=O)O)C(=O)NCC(=O)NCC(=O)N1CCC[C@H]1C(=O)N[C@@H](CO)C(=O)N[C@@H](CO)C(=O)NCC(=O)N[C@@H](C)C(=O)N1CCC[C@H]1C(=O)N1CCC[C@H]1C(=O)N1CCC[C@H]1C(=O)N[C@@H](CO)C(N)=O)C(C)C)[C@@H](C)CC
B6: Example 80 (peptide)
peptide: Y[Aib]EGTFISDYSI[αMeL]LD[Orn]K([AEEA-AEEA-γGlu-C20 diacid])HQ[Aib]DFVE[4Pal]LLETGPSSGAPPPS-NH2
modifications: N-terminus assumed
SMILES: CC[C@H](C)[C@H](NC(=O)[C@H](Cc1ccccc1)NC(=O)[C@@H](NC(=O)CNC(=O)[C@H](CCC(=O)O)NC(=O)C(C)(C)NC(=O)[C@@H](N)Cc1ccc(O)cc1)[C@@H](C)O)C(=O)N[C@@H](CO)C(=O)N[C@@H](CC(=O)O)C(=O)N[C@@H](Cc1ccc(O)cc1)C(=O)N[C@@H](CO)C(=O)N[C@H](C(=O)N[C@@](C)(CC(C)C)C(=O)N[C@@H](CC(C)C)C(=O)N[C@@H](CC(=O)O)C(=O)N[C@@H](CCCN)C(=O)N[C@@H](CCCCNC(=O)COCCOCCNC(=O)COCCOCCNC(=O)CC[C@H](NC(=O)CCCCCCCCCCCCCCCCCCC(=O)O)C(=O)O)C(=O)N[C@@H](Cc1c[nH]cn1)C(=O)N[C@@H](CCC(N)=O)C(=O)NC(C)(C)C(=O)N[C@@H](CC(=O)O)C(=O)N[C@@H](Cc1ccccc1)C(=O)N[C@H](C(=O)N[C@@H](CCC(=O)O)C(=O)N[C@@H](Cc1ccncc1)C(=O)N[C@@H](CC(C)C)C(=O)N[C@@H](CC(C)C)C(=O)N[C@@H](CCC(=O)O)C(=O)N[C@H](C(=O)NCC(=O)N1CCC[C@H]1C(=O)N[C@@H](CO)C(=O)N[C@@H](CO)C(=O)NCC(=O)N[C@@H](C)C(=O)N1CCC[C@H]1C(=O)N1CCC[C@H]1C(=O)N1CCC[C@H]1C(=O)N[C@@H](CO)C(N)=O)[C@@H](C)O)C(C)C)[C@@H](C)CC

What was measured:
Assay in all cases: cell-based or functional assay
human glucagon receptor = human glucagon receptor (human, UniProt P47871 26-477)
[1] = molecular target: T1, human glucose-dependent insulinotropic …
human GLP-1 receptor = human GLP-1 receptor (human, UniProt P43220 24-463)

Sequence of human glucagon receptor (P47871 26-477): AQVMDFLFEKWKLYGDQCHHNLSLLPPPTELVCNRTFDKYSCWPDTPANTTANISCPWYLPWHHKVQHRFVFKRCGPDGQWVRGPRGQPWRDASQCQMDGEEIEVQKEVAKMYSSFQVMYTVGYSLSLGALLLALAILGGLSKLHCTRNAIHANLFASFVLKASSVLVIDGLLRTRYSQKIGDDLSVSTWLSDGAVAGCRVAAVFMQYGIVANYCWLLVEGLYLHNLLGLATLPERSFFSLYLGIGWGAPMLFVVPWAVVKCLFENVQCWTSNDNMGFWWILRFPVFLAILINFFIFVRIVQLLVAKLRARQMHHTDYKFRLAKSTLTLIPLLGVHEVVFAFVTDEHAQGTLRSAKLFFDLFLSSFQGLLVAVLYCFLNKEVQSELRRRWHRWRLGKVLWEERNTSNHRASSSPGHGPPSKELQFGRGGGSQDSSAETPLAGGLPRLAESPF

| Binder | hGcgR cAMP Rel EC50 (human glucagon receptor) [µM] | hGIPR cAMP Rel EC50 [1] [nM] | hGLP1R cAMP Rel EC50 (human GLP-1 receptor) [µM] |
| --- | --- | --- | --- |
| B1 | > 5 | 0.034 | > 5 |
| B2 | > 5 | 0.0316 | > 5 |
| B3 | > 5 | 0.0432 | > 5 |
| B4 | > 5 | 0.0282 | > 5 |
| B5 | 3.79 | 0.0391 | > 5 |
| B6 | > 5 | 0.0777 | > 5 |
